# Laboratory results taken from US20230031280A1, “GLP-2 FUSION POLYPEPTIDES AND USES FOR TREATING AND PREVENTING GASTROINTESTINAL CONDITIONS” (SHIRE-NPS PHARMACEUTICALS, INC., priority 2017, published 2023).
# Key:
# [1] = Rat pharmacokinetics, subcutaneous dosing; type: in vivo, Sprague-Dawley rats; settings: single dose 1 mg/ml
# Protocol: (§1) In the rat, four pharmacokinetic parameters were measured for Gattex® (a GLP-2 peptide having the A2G mutation): CL, Vc, Vt and Q. The same pharmacokinetic parameters were also measured for GLP-2 peptibodies A, B, E, J, K, L, M, O and P. The data is shown in Table 5. Male Sprague-Dawley rats (3 animals per group) were injected subcutaneously into the intra-scapular region of the animal. A singles dose of test article was injected at a dose level of 1 mg/ml. The test articles were formulated in PBS pH 7.4 at a concentration of Blood samples were taken 0.083, 0.167, 0.33, 0.5, 1, 2, 6, 24, 48, 72, 120, 168, 240, and 336 hours post dose. Blood samples were collected into heparinized tubes and centrifuged for 5 minutes at 2000 xg within 10 minutes of collection. 100 μL of plasma were transferred to a 1.51 ml Eppendorf tube containing 2 μL of 50 mM PMSF. After mixing the plasma samples were frozen at −80° C. until analysis. Meso Scale Discovery (MSD) ELISA was undertaken to assay for the concentration of the GLP-2 peptibodies.
# A sandwich immunoassay was developed using either an anti-Human IgG1 Fc antibody or an anti-human albumin antibody for capture of the peptibody and a sulfotag labeled anti GLP-2 antibody for detection.
# [2] = biological target: T1, hFcRn (extracellular domain of the FcRN) (Homo sapiens, UniProt P55899); experiment: FcRn binding by surface plasmon resonance (Biacore)
# T1 construct: made in house
# Text: Binding to the Fc neonatal receptor (FcRN) allows for recycling of the molecules and leads to an extended in vivo serum half-life of the Fc fusion proteins. Recycling occurs as the molecules are passively taken into the cells and the pH of the endosomes is lower. That leads to binding of the Fc portion of the molecule to the FcRN. When the FcRN recycles back to the surface of the cell, the pH is then neutral and the protein is released back into the serum.
# Binding to the extracellular domain of the FcRN was measured by surface plasmon resonance (SPR) using a Biacore system. Direct immobilization with FcRn was achieved via amine coupling of a CM5 chip with FcRn under the following conditions: • i) hFcRn (expressed and purified in house) is diluted in Acetate buffer pH 5.0 to 5 μg/mL. • ii) Immobilize 5 μg/mL of FcRn with target of 500 RU on CM5 chip in PBS pH 7.0 • iii) Final response 454 RU • iv) Running buffer: PBS-P+, pHed to 5.5
# The kinetic binding study was done using the following protocol. Samples were diluted in PBS-P+ to 50, 25, 12.5, 6.25, 3.125, 1.56, 0.78, 0.39, 0 nM. The parameters were set as follows: • i) Association and Dissociation 300 s at Flow rate 30 μL/min • ii) Regeneration with 25 mM Tris, 150 mM NaCl pH 8.0 40 s at 60 μL/min
# A measurement of the binding of the GLP-2 peptibodies to the Fc neonatal receptor (FcRN) was undertaken at pH 5.5 and pH 7.4.
# [3] = Rat pharmacokinetics, intravenous dosing; type: in vivo, Sprague-Dawley rats; settings: single dose 1 mg/ml
# Protocol: as §1, with “4.” for “5.”, “intravenously either via a jugular vein or tail vein catheter.” for “subcutaneously into the intra-scapular region of the animal.”, “1.5” for “1.51”, “mixing,” for “mixing”, “analysis.” for “analysis. Meso Scale Discovery (MSD) ELISA was undertaken to assay for the concentration of the GLP-2 peptibodies.”
# [4] = NanoDSF melting temperature / thermal stability; type: physicochemical; settings: for NanoDSF melting temperature 1: first transition; for NanoDSF melting temperature 2: second transition
# Protocol: Each of the GLP-2 peptibodies was tested by determining melting temperature with nanodifferential scanning fluorimetry (NanoDSF). NanoDSF is a measurement of protein stability over a range of temperatures, with a temperature ramp employed. The stability of tryptophan is measured by fluorescence, as reflected in a ratio of fluorescence at 350 nm to fluorescence at 330 nm. From the assay, one or more melting temperatures are determined. Because a protein in a certain state is understood to have a melting temperature, the number of melting temperatures observed reflects the number of different states.
# (§2) Stability analysis was then performed using SEC-MALS and NanoDSF. For SEC-MALS, a Sepax Zenix C-150 column was used. The mobile phase buffer was 1× PBS with a final concentration of 400 mM NaCl. The flow rate was 0.8 mL per minute. 20 micrograms of total protein was injected. For NanoDSF, 10 microliters of sample was used, without normalization of the samples.
# as §2
# [5] = SEC-MALS (Sepax Zenix C-150) peak distribution; type: physicochemical
# Protocol: A SEC-MALS assay was performed to determine the primary state (main peak) and its molecular weight. […] The GLP-2 peptibody O (albumin fusion) eluted at a molecular weight indicative of a monomer.
# as §2, §2
# [6] = Table 7 (Example 6), 0.5 mg/mL sample
# [7] = Table 7 (Example 6), 1.5 mg/mL sample
# [8] = Table 7 (Example 6), 5 mg/mL sample
# [9] = Table 7 (Example 6), 7.5 mg/mL sample
# T1 sequence (P55899 24-297 limits assumed): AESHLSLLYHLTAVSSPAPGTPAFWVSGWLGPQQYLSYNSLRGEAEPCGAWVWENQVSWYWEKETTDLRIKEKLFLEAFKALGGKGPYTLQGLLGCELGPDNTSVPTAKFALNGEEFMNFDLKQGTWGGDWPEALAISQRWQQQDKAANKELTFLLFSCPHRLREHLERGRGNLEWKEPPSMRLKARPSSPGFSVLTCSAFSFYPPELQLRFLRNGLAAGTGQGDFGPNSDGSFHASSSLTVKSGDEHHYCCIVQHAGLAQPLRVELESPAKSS
# T1 sequence (P61769 21-119 partner): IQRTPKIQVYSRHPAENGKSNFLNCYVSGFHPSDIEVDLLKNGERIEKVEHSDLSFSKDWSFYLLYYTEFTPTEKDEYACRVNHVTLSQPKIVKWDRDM
compound,measurement,setting,value
GLP-2 peptibody A: GLP-2[A2G] fused without linker to IgG1 Fc (LALA); SEQ ID NO: 13,CL,[1],70.7 mL/day/kg
same,Q,[1],3.25 mL/h/kg
same,Vc,[1],109 mL/kg
same,Vt,[1],0.081 L/kg
same,ka,[1],"A (0.45 ka/day,"
same,Kd,[2]; pH 5.5,1.38 nM
same,FcRN KD at pH 7.4,[2],No binding in range tested.
same,CL,[3],2.37 mL/h/kg
same,Q,[3],2.42 mL/h/kg
same,Vc,[3],43 mL/kg
same,Vt,[3],0.079 L/kg
same,NanoDSF melting temperature 1,[4],1 = 67.0 °C
same,NanoDSF melting temperature 2,[4],2 = 80 °C
CC[C@H](C)[C@H](NC(=O)[C@H](Cc1ccccc1)NC(=O)[C@H](CC(=O)O)NC(=O)[C@H](CCCNC(=N)N)NC(=O)[C@H](C)NC(=O)[C@H](C)NC(=O)[C@H](CC(C)C)NC(=O)[C@H](CC(N)=O)NC(=O)[C@H](CC(=O)O)NC(=O)[C@H](CC(C)C)NC(=O)[C@@H](NC(=O)[C@@H](NC(=O)[C@H](CC(N)=O)NC(=O)[C@H](CCSC)NC(=O)[C@H](CCC(=O)O)NC(=O)[C@H](CC(=O)O)NC(=O)[C@H](CO)NC(=O)[C@H](Cc1ccccc1)NC(=O)[C@H](CO)NC(=O)CNC(=O)[C@H](CC(=O)O)NC(=O)CNC(=O)[C@@H](N)Cc1c[nH]cn1)[C@@H](C)O)[C@@H](C)CC)C(=O)N[C@@H](CC(N)=O)C(=O)N[C@@H](Cc1c[nH]c2ccccc12)C(=O)N[C@@H](CC(C)C)C(=O)N[C@H](C(=O)N[C@@H](CCC(N)=O)C(=O)N[C@H](C(=O)N[C@@H](CCCCN)C(=O)N[C@H](C(=O)N[C@H](C(=O)N[C@@H](CC(=O)O)C(=O)O)[C@@H](C)O)[C@@H](C)CC)[C@@H](C)O)[C@@H](C)CC [Gattex],CL,[1],"51,649 mL/day/kg"
same,Vc,[1],"1,794 mL/kg"
same,clearance,"[3]; male, Sprague-Dawley, plasma",1390 mL/h/kg
same,Vc,[3],"2,235 mL/kg"
"GLP-2 peptibody O: fusion protein between GLP-2, a linker, and amino acids 25-609 of human serum albumin; SEQ ID NO: 28",SEC-MALS Zenix C-150 main peak,[5],"89.5% main peak, 76,500 g/mol"
same,CL,[1],742 mL/day/kg
same,Vc,[1],565 mL/kg
same,ka,[1],"O (1.26 ka/day,"
same,FcRN KD at pH 5.5,[2]; pH 5.5,substantially higher KD
same,Kd,[2]; pH 5.5,1370 nM
same,FcRN KD at pH 7.4,[2],No binding in range tested.
same,CL,[3],5.42 mL/h/kg
same,Q,[3],57.5 mL/h/kg
same,Vc,[3],43.2 mL/kg
same,Vt,[3],0.054 L/kg
same,NanoDSF melting temperature 1,[4],1 = 57.6 °C
GLP-2 peptibody M: GLP-2[A2G]-GGGGSGGGGS linker-IgG1 Fc (LALA); SEQ ID NO: 25,SEC-MALS Zenix C-150 main peak,[5],"81.4% main peak, 148,500 g/mol"
same,CL,[1],60.2 mL/day/kg
same,Vc,[1],91.5 mL/kg
same,ka,[1],"M (0.78 ka/day,"
same,Kd,[2]; pH 5.5,1.81 nM
same,FcRN KD at pH 7.4,[2],No binding in range tested.
same,CL,[3],1.6 mL/h/kg
same,Q,[3],7.62 mL/h/kg
same,Vc,[3],12 mL/kg
same,Vt,[3],0.0294 L/kg
same,NanoDSF melting temperature 1,[4],1 = 67.3 °C
same,NanoDSF melting temperature 2,[4],2 = 79.9 °C
"GLP-2 peptibody P: fusion of GLP-2, a linker that is also a GLP-2 sequence, and human serum albumin 25-609; SEQ ID NO: 30",CL,[3],7.08 mL/h/kg
same,Q,[3],29.5 mL/h/kg
same,Vc,[3],38.4 mL/kg
same,Vt,[3],0.0439 L/kg
GLP-2 peptibody B264: GLP-2[A2G]-GGGGG linker-IgG1 Fc (LALA) without C-terminal lysine; SEQ ID NO: 1,SEC LMW,"[5]; Table 6, 0.5 mg/mL sample",17.2% LMW
same,SEC Main Peak,"[5]; Table 6, 0.5 mg/mL sample",82.8% Main Peak
same,SEC HMW,"[5]; Table 6, 1.5 mg/mL sample",2.1% HMW
same,SEC LMW,"[5]; Table 6, 1.5 mg/mL sample",20.8% LMW
same,SEC Main Peak,"[5]; Table 6, 1.5 mg/mL sample",77.2% Main Peak
same,SEC HMW,"[5]; Table 6, 5 mg/mL sample",2% HMW
same,SEC LMW,"[5]; Table 6, 5 mg/mL sample",20.1% LMW
same,SEC Main Peak,"[5]; Table 6, 5 mg/mL sample",77.9% Main Peak
same,SEC HMW,"[5]; Table 6, 11 mg/mL sample",2.1% HMW
same,SEC LMW,"[5]; Table 6, 11 mg/mL sample",17.4% LMW
same,SEC Main Peak,"[5]; Table 6, 11 mg/mL sample",80.5% Main Peak
same,SEC HMW,[5]; [6],2.9% HMW
same,SEC LMW,[5]; [6],19.7% LMW
same,SEC Main Peak,[5]; [6],77.4% Main Peak
same,SEC LMW,[5]; [7],21.4% LMW
same,SEC Main Peak,[5]; [7],78.6% Main Peak
same,SEC LMW,[5]; [8],20.8% LMW
same,SEC Main Peak,[5]; [8],79.2% Main Peak
same,SEC LMW,[5]; [9],19.9% LMW
same,SEC Main Peak,[5]; [9],80% Main Peak
same,Thermal Stability (NanoDSF) 1,"[4]; Table 6, 0.5 mg/mL sample",1 = 67.1 °C
same,Thermal Stability (NanoDSF) 2,"[4]; Table 6, 0.5 mg/mL sample",2 = 75.2 °C
same,Thermal Stability (NanoDSF) 1,"[4]; Table 6, 1.5 mg/mL sample",1 = 67.0 °C
same,Thermal Stability (NanoDSF) 2,"[4]; Table 6, 1.5 mg/mL sample",2 = 74.8 °C
same,Thermal Stability (NanoDSF) 1,"[4]; Table 6, 5 mg/mL sample",1 = 67.2 °C
same,Thermal Stability (NanoDSF) 2,"[4]; Table 6, 5 mg/mL sample",2 = 75.0 °C
same,Thermal Stability (NanoDSF) 1,"[4]; Table 6, 11 mg/mL sample",1 = 67.5 °C
same,Thermal Stability (NanoDSF) 2,"[4]; Table 6, 11 mg/mL sample",2 = 74.7 °C
same,Thermal Stability (NanoDSF) 1,[4]; [6],1 = 67.6 °C
same,Thermal Stability (NanoDSF) 2,[4]; [6],2 = 80.2 °C
same,Thermal Stability (NanoDSF) 1,[4]; [7],1 = 67.6 °C
same,Thermal Stability (NanoDSF) 2,[4]; [7],2 = 80.2 °C
same,Thermal Stability (NanoDSF) 1,[4]; [8],1 = 67.7 °C
same,Thermal Stability (NanoDSF) 2,[4]; [8],2 = 80.7 °C
same,Thermal Stability (NanoDSF) 1,[4]; [9],1 = 67.8 °C
same,Thermal Stability (NanoDSF) 2,[4]; [9],2 = 80.4 °C
GLP-2 peptibody L: GLP-2[A2G]-GGGGGGG linker-IgG1 Fc (LALA); SEQ ID NO: 22,SEC-MALS Zenix C-150 main peak,[5],"87.4% main peak, 148,000 g/mol"
same,CL,[1],80.6 mL/day/kg
same,Vc,[1],127 mL/kg
same,ka,[1],"L (0.63 ka/day,"
same,Kd,[2]; pH 5.5,1.72 nM
same,FcRN KD at pH 7.4,[2],No binding in range tested.
same,CL,[3],2.8 mL/h/kg
same,Q,[3],0.792 mL/h/kg
same,Vc,[3],37.8 mL/kg
same,Vt,[3],0.538 L/kg
same,NanoDSF melting temperature 1,[4],1 = 67.5 °C
same,NanoDSF melting temperature 2,[4],2 = 80 °C
